Test [1] has as its target commercially available recombinant MyD88 (UniProt Q99836). The experiment in a line: ITC; 1 uM rTcpC in PBS in the titration pool, 0.1 uM UBE2D1 or rMyD88 in PBS in the sample pool; VP-ITC microcalorimeter. Background: In ITC the heat of successive injections is recorded.
In another test the target is BSA. In words: SPR. As to conditions: natural protein.

For two substances, Kd results are on record in paper PMC8041205.

commercially available recombinant MyD88, sequence (Q99836 whole entry): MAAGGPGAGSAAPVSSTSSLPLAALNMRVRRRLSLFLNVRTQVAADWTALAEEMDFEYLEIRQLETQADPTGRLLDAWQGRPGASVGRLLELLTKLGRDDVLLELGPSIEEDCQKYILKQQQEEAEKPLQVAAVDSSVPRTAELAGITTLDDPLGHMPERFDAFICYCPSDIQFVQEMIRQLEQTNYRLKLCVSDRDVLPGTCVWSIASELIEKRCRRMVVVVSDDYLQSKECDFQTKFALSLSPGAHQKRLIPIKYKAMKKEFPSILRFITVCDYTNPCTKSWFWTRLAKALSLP
recombinant TcpC (Toll/interleukin-1 receptor domain-containing protein encoded by E. coli) (from UniProt A0A0H2V8B5 1-307), sequence (A0A0H2V8B5 whole entry, the tested form may be a part): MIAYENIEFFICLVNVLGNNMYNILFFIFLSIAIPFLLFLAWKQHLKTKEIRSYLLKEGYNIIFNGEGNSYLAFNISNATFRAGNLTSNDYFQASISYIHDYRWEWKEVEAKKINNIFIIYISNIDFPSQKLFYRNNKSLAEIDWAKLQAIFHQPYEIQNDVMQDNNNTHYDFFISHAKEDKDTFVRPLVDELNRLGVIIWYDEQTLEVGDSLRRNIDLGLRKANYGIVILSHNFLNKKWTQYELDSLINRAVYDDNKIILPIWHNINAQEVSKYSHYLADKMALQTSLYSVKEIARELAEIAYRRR
recombinant TcpC (Toll/interleukin-1 receptor domain-containing protein encoded by E. coli) (from UniProt A0A0H2V8B5 1-307) (natural protein; other documents disagree on this pair), sequence (A0A0H2V8B5 whole entry, the tested form may be a part): as above

Regarding “recombinant TcpC (Toll/interleukin-1 receptor domain-containing protein encoded by E. coli) (from UniProt A0A0H2V8B5 1-307) (natural protein; other documents disagree on this pair)”, in test [1], the Kd (as a rule, a measure of binding affinity in units of concentration) was 0.539 µM.

As to “recombinant TcpC (Toll/interleukin-1 receptor domain-containing protein encoded by E. coli) (from UniProt A0A0H2V8B5 1-307)”, the Kd with BSA is > 10000 µM.
